Test results as given in publication PMC12111007, “Potential of Hyperthermophilic L-Asparaginase from Thermococcus sibiricus to Mitigate Dietary Acrylamide Assessed Using a Simplified Food System” (Foods, 2025).

Substrate: NC(=O)C[C@H](N)C(=O)O
Experiment: direct Nesslerization (ammonia release)
Type: biochemical, Thermococcus sibiricus
Conditions: 90 °C, substrate not named beside the constant, taken as L-asparagine, pH not stated for the kinetics

B1: TsAI (hyperthermophilic L-asparaginase from Thermococcus sibiricus) (Thermococcus sibiricus MM 739) (protein)
chain: MKKLLIIGTGGTIASAKTEQGYKSVLKIDEILKLAKIKLENGYKIDSTNIMNIDSTLIHPEDWEIIAKEVFKALDDYDGIIITHGTDTLAYTASMLSFMIKNPNKPIVLTGSMLPITENGSDAPRNIRTAIKFAMEDVAGVFVAFMDKIMLGCRTSKVRTLGLNAFMSINYPDVAYVKGEKILYNIPKEKFQPNGSPELDTKYEPRVVVLRVTPGLGGEIIDAVLDAGYKGIVLEGYGAGGLPYRKSNLLSKIKEITPKIPVIMTTQALYDGVDMRKYEVGRKALETGIIPAKDMTKEATITKLMWALGHTKDVEKIREIMHTNYVNEIKS
  Km: 3.8 mM
